From publication PMC9298306, “Controlling Enzymatic Activity by Modulating the Oligomerization State via Chemical Rescue and Optical Control” (Chembiochem, 2021)
Substitutions are numbered along the chain they refer to. Numbers in names are those of the source.

Assays:
[1] = test system: T1, RGGGPS (AncGGGPS2_N4_IF_n12); test: coupled pyrophosphate/phosphate detection at […] nm (PPase, PNPase, xanthine oxidase), G1P-dependent; assay type: biochemical; conditions: 11 μM GGPP, 10 mM MgCl2, pH 8.0, 40 °C, 0.2 % Tween80
T1 construct: His-tagged, from E. coli; hexamer

mtGGGPS = molecular target: T2, mtGGGPS (Methanothermobacter thermautotrophicus, UniProt O26652, K143C/C191A, form not given); test: as above; assay type: biochemical; conditions: 11 μM GGPP, 10 mM MgCl2, pH 8.0, 40 °C, 0.2 % Tween80; without bromoethylamine (−Am), dimer
T2 construct: gene MTH_552; His-tagged, expressed in E. coli BL21-Gold(DE3); hexamer (trimer of dimers); C194A/K146C variant is a dimer unless rescued

[2] = molecular target: geranylgeranylglyceryl phosphate synthase from Methanothermobacter thermautotrophicus, wild type (Methanothermobacter thermautotrophicus) (UniProt O26652); test: SEC-MALS; analytical SEC (Superdex 200 Increase 10/300 GL) in combination with static light scattering (right-angle light scattering and refractive index detectors); 40 μM subunit concentration; 50 mM potassium phosphate, pH 7.5, 300 mM KCl; room temperature (approx. 23 °C)
[3] = molecular target: mtGGGPS_(C194A) (Methanothermobacter thermautotrophicus) (UniProt O26652); test: as above
[4] = molecular target: mtGGGPS_(C194A)_K146C^+Am (Methanothermobacter thermautotrophicus) (UniProt O26652)
[5] = molecular target: mtGGGPS_(C194A)_K146C^+Am (Methanothermobacter thermautotrophicus) (UniProt O26652); test: SEC-MALS; analytical SEC (Superdex 200 Increase 10/300 GL) in combination with static light scattering (right-angle light scattering and refractive index detectors); 40 μM subunit concentration; 50 mM potassium phosphate, pH 7.5, 300 mM KCl; room temperature (approx. 23 °C)
purified protein = substrate: O=P(O)(O)OC[C@@H](O)CO; test: purified protein; assay type: biochemical, Methanothermobacter thermautotrophicus; conditions: 11 μM GGPP, 10 mM MgCl2, pH 8.0, 40 °C, 0.2 % Tween80

T2 sequence (O26652 whole entry K143C/C191A, form open): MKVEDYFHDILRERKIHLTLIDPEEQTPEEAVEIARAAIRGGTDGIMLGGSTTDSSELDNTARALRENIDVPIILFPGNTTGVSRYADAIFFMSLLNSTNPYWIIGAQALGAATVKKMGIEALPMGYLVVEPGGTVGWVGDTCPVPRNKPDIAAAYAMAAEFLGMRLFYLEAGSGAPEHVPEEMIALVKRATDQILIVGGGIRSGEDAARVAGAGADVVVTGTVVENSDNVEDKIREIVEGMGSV

Molecule: O=P(O)(O)OC[C@@H](O)CO [G1P, glycerol 1‐phosphate]
- Km [1]: 14.2 ± 2.2 µM
- Km (mtGGGPS): 63.4 ± 5.8 µM

Molecule: geranylgeranylglyceryl phosphate synthase from Methanothermobacter thermautotrophicus, wild type (from UniProt O26652 1-245) (enzyme)
- stoichiometry N [2]: 6

Molecule: mtGGGPS_(C194A) (from UniProt O26652 1-245) (enzyme)
- stoichiometry N [3]: 6

Molecule: mtGGGPS_(C194A)_K146C^+Am (from UniProt O26652 1-245) (enzyme)
- kcat/KM, photometric assay of the GGGPS reaction at 40 °C [4]: 192000 M⁻¹ s⁻¹
- percent in the hexameric state [5]: 100%
- stoichiometry N [5]: 6

Molecule: mtGGGPS_(C194A)_K146C^−Am (from UniProt O26652 1-245) (enzyme)
- kcat/KM, photometric assay of the GGGPS reaction at 40 °C [4]: 550 M⁻¹ s⁻¹
- stoichiometry N [5]: 2

B1: mtGGGPS (Methanothermobacter thermautotrophicus str. Delta H) (protein)
chain: MKVEDYFHDILRERKIHLTLIDPEEQTPEEAVEIARAAIRGGTDGIMLGGSTTDSSELDNTARALRENIDVPIILFPGNTTGVSRYADAIFFMSLLNSTNPYWIIGAQALGAATVKKMGIEALPMGYLVVEPGGTVGWVGDTKPVPRNKPDIAAAYAMAAEFLGMRLFYLEAGSGAPEHVPEEMIALVKRCTDQILIVGGGIRSGEDAARVAGAGADVVVTGTVVENSDNVEDKIREIVEGMGSV
notes: His-tagged, expressed in E. coli BL21-Gold(DE3); hexamer (trimer of dimers); C194A/K146C variant is a dimer unless rescued
- Km (purified protein): 2.0 ± 0.3 µM
- kcat (purified protein): 0.23 ± 0.005 s⁻¹
- kcat/Km (purified protein): 115000 ± 17000 M⁻¹ s⁻¹

B2: mtGGGPS (Methanothermobacter thermautotrophicus str. Delta H; C191A) (protein)
chain: B1 chain with C191A
notes: as for B1
- Km (purified protein): 3.3 ± 0.6 µM
- kcat (purified protein): 0.29 ± 0.01 s⁻¹
- kcat/Km (purified protein): 88000 ± 18000 M⁻¹ s⁻¹
